Experimental findings from patent US20170037084A1 (UNIVERSITY OF ROCHESTER, published 2017) are described below.

First the molecules themselves.
T1: HDMX-YFP fusion protein (p53-binding domain of human HDMX, residues 1-109, C-terminally fused to Yellow … (human, UniProt O15151 1-109))
T1 construct: range 1-109; Expressed in E. coli BL21(DE3) from pET22-HDMX-YFP-His; also called HMDX; HDM4; not shown: Yellow Fluorescent Protein (YFP); C-terminal His tag
T1 sequence (looked up): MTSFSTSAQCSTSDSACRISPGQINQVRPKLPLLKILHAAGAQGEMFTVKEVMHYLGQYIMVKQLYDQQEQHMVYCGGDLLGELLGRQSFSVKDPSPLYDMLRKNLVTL

B1: p53 macrocyclic peptidomimetic P5 (i/i+6(CO)-linked, distance-mismatched SP4-based linker; negative control) (peptide)
peptide: GTSFA[Phe(4-Ac)]YWNLLA
modifications: linker 6-C via SP4; reading uncertain; also: linker thiol capped with iodoacetamide
notes: also called SP4-based macrocycle P5
B2: p53 macrocyclic peptidomimetic P8 (i/i+10(CO)-linked, SP8-based linker) (peptide)
peptide: G[Phe(4-Ac)]SFAEYWNLLA
modifications: bridge 2-C; not fully specified (bridges); also: linker thiol capped with iodoacetamide
B3: p53 macrocyclic peptidomimetic P7 (i/i+10(CO)-linked, SP6-based linker) (peptide)
peptide: G[Phe(4-Ac)]SFAEYWNLLA
modifications: linker 2-C via SP6; reading uncertain; also: linker thiol capped with iodoacetamide
B4: P17 (peptide)
peptide: Ac-[pAcF]SFAEY[Trp(6-Cl)]ALLA
modifications: linker 1-C via SP9; reading uncertain; also: linker thiol capped with iodoacetamide
notes: also called Ac-(pAcF)SFAEY(6ClW)ALLA, SP9-linked macrocycle
B5: P18 (peptide)
peptide: Ac-[mAcF]SFAEY[Trp(6-Cl)]ALLA
modifications: linker 1-C via SP9; reading uncertain; also: linker thiol capped with iodoacetamide
notes: also called Ac-(mAcF)SFAEY(6ClW)ALLA, SP9-linked macrocycle
B6: P11 (peptide)
peptide: Ac-[Phe(4-Ac)]SFAEY[Trp(6-Cl)]ALLA-NH2
SMILES: CC(=O)N[C@@H](Cc1ccc(C(C)=O)cc1)C(=O)N[C@@H](CO)C(=O)N[C@@H](Cc1ccccc1)C(=O)N[C@@H](C)C(=O)N[C@@H](CCC(=O)O)C(=O)N[C@@H](Cc1ccc(O)cc1)C(=O)N[C@@H](Cc1c[nH]c2cc(Cl)ccc12)C(=O)N[C@@H](C)C(=O)N[C@@H](CC(C)C)C(=O)N[C@@H](CC(C)C)C(=O)N[C@@H](C)C(N)=O
notes: also called Ac-(pAcF)SFAEY(6ClW)ALLA-NH2
B7: P16 (peptide)
peptide: Ac-[mAcF]SFAEY[Trp(6-Cl)]ALLA
modifications: linker 1-C via SP8; also: linker thiol capped with iodoacetamide
notes: also called Ac-(mAcF)SFAEY(6ClW)ALLA, SP8-linked macrocycle
B8: p53 macrocyclic peptidomimetic P3 (i/i+6(CO)-linked, SP6-based linker) (peptide)
peptide: GTSFA[Phe(4-Ac)]YWNLLA
modifications: linker 6-C via SP6; reading uncertain; also: linker thiol capped with iodoacetamide
B9: P19 (peptide)
peptide: Ac-[pAcF]SFAEY[Trp(6-Cl)]ALLA
modifications: linker 1-C via SP4; reading uncertain; also: linker thiol capped with iodoacetamide
notes: also called Ac-(pAcF)SFAEY(6ClW)ALLA, SP4-linked macrocycle
B10: P2 (peptide)
peptide: Ac-GTSFAYYWNLLA-NH2
notes: also called acyclic counterpart of P3 and P4

Bridges are numbered along the chain shown (N, C = ends). Where no end group is shown, it is not given here. [ ]: non-standard residue; d: D form. The star is where a group is joined. SP8 = 3-amino-N-(3-(aminooxy)propyl)-4-(mercaptomethyl)benzamide, macrocycle-forming linker reagent; mAcF = meta-acetyl-L-phenylalanine, its ketone forms an oxime with the linker; pAcF = para-acetyl-L-phenylalanine, its ketone forms an oxime with the linker; FITC = O=C1OC2(c3ccc(O)cc3Oc3cc(O)ccc32)c2ccc(NC(=S)*)cc21; Trp(6-Cl) = N[C@@H](Cc1c[nH]c2cc(Cl)ccc12)C(=O)O; Phe(4-Ac) = CC(=O)c1ccc(C[C@H](N)C(=O)O)cc1; SP4 = not defined here; SP6 = not defined here; SP9 = not defined here; βAla = NCCC(=O)O

In one assay the target is T1, HDMX-YFP fusion protein (p53-binding …). The assay can be described thus: SPR inhibition assay, competitor immobilised biotin-p53(15-29); the sentence does not say which homolog. The procedure:
(§1) The surface plasmon resonance (SPR)-based inhibition assays were performed using a BIAcore T100 instrument. […] Running buffer and sample buffer contained 10 mM HEPES buffer, pH 7.4 with 150 mM NaCl, 3 mM EDTA and 0.05% v/v Tween 20. […] With increasing concentrations of the inhibitor, binding of HDM2 (or HDMX) to the surface is inhibited, leading to a decrease in biosensor response. HDM2/HDMX plus inhibitor samples were injected at a rate of 30 uL/min over a 2 minute interval by a 2 minute dissociation period and a 10-second regeneration step using 10 mM HCl. Specific binding curves for each concentration of inhibitor were obtained by subtracting the response in the reference surface from the response in the p53-coated surface.
B1 yielded a half-inhibitory concentration (IC50) of approximately 10000 nM.

Another assay shares this target. The assay can be described thus: SPR inhibition assay, competitor immobilised biotin-p53(15-29). How it is done:
as §1
Turning to B2, the IC50 was determined as 340 nM.

For the molecule B3, the IC50 is 910 nM.

Another assay deals with T2, HDM2-YFP fusion protein (p53-binding domain of human HDM2, residues 1-109, C-terminally fused to Yellow … (human, UniProt Q00987 1-109)).
T2 construct: range 1-109; Expressed in E. coli BL21(DE3) from pET22-HDM2-YFP-His; also called HMD2; HDM2-YFP-His; not shown: Yellow Fluorescent Protein (YFP); C-terminal His tag
T2 sequence (Q00987 1-109): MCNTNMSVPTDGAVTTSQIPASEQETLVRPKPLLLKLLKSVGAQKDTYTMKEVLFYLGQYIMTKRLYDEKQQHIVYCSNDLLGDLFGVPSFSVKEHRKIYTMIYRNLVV
The assay can be described thus: SPR inhibition assay: inhibitor added to soluble HDM2-YFP, binding to immobilized biotin-SGSG-p53(15-29) is inhibited. The procedure: as §1
GTSFA[pAcF]YWNLLA (linker 6-C via SP8; also: linker thiol capped with iodoacetamide) [p53 macrocyclic peptidomimetic P4 (i/i+6(CO)-linked, SP8-based linker)] yielded an IC50 of 1500 nM.

The molecule B4 came in with an IC50 of 305 nM.

Turning to B5, the IC50 came out at 400 nM.

For B6, the half-maximal inhibitory concentration (IC50) is 30 nM.

In turn, Ac-[mAcF]SFAEYWNLLA (linker 1-C via SP8; also: linker thiol capped with iodoacetamide) [P14] showed an IC50 of 255 nM.

Consider Ac-[pAcF]SFAEYWNLLA (linker 1-C via SP8; also: linker thiol capped with iodoacetamide) [P13], for which the half-inhibitory concentration (IC50) was 135 nM.

For B7, the concentration for half-maximal inhibition (IC50) amounted to 105 nM.

Regarding B8, the IC50 stood at 870 nM.

With B9, the IC50 is more than 50000 nM.

Molecule Ac-G[pAcF]SFAEYWNLLA (linker 2-C via SP8; also: linker thiol capped with iodoacetamide) [P12] returned an IC50 of 145 nM.

Regarding B10, the IC50 came out at 1510 nM.

The target in another assay is T1, HDMX-YFP fusion protein (p53-binding …). The assay can be described thus: SPR inhibition assay: inhibitor added to soluble HDMX-YFP, binding to immobilized biotin-SGSG-p53(15-29) is inhibited. How it is done:
as §1
For GTSFA[pAcF]YWNLLA (linker 6-C via SP8; also: linker thiol capped with iodoacetamide) [p53 macrocyclic peptidomimetic P4 (i/i+6(CO)-linked, SP8-based linker)], the IC50 is 3500 nM.

For B8, the IC50 amounted to 4100 nM.

In turn, B10 returned a half-inhibitory concentration (IC50) of 7500 nM.

Another assay deals with T2, HDM2-YFP fusion protein (p53-binding …). As to the kind of experiment: fluorescence polarization, fluorescein-labeled compound (25-200 nM) titrated with HDM2 (10 nM to 2 µM). The procedure:
HDM2 binding studies. […] In the assay, 25-200 nM of the fluorescein-labeled compound and HDM2 concentrations varying from 10 nM to 2 μM were tested. The experiments were performed at room temperature in black 96-well plates with a final volume of 75 μL in PBS buffer with addition of 1% DMSO. Fluorescence was detected at excitation/emission of 470/520 nm and change in fluorescence polarization was plotted against the varying protein concentration.
In general terms: In fluorescence polarisation assays a small probe gives low polarisation when free and higher when bound to something large.
For the molecule {FITC-βAla}-G[pAcF]SFAEYWNLLA (linker 2-C via SP8; also: linker thiol capped with iodoacetamide, also called fluorescein-conjugated P8) [FITC-β-Ala-P8 (fluorescein-labeled derivative of macrocycle P8)], the Kd was 63 nM.

One may read the IC50 as the concentration at which inhibition is half-maximal. A lower IC50 goes with higher potency. In general, Kd refers to the concentration at which binding is half-saturated. The low end stands for tighter binding, the high end for weaker binding.
